According to patent US20260209346A1 (LTZ THERAPEUTICS, published 2026):

How the values were obtained:
[1] = target: CD79b endogenously expressed on the cell surface (malignant B cell lines, normal B cells in PBMC, CLL patients' B lymphocytes) (human) (UniProt P40259); test: flow cytometry quadrant plot, untransfected NALM6 cells; Anti-CD79b-PE against Anti-IgM-APC
[2] = target: CD79b endogenously expressed on the cell surface (malignant B cell lines, normal B cells in PBMC, CLL patients' B lymphocytes) (human) (UniProt P40259); test: flow cytometry on BJAB cells; anti-human IgG1-PE; MFI (PE); table under the graph; fit of a flat control curve
[3] = target: CD79b endogenously expressed on the cell surface (malignant B cell lines, normal B cells in PBMC, CLL patients' B lymphocytes) (human) (UniProt P40259); test: flow cytometry on SU-DHL-4 cells; anti-human IgG1-PE; MFI (PE); table under the graph; fit of a flat control curve
[4] = target: CD79b endogenously expressed on the cell surface (malignant B cell lines, normal B cells in PBMC, CLL patients' B lymphocytes) (human) (UniProt P40259); test: flow cytometry on PBMC of Donor 2890, B cells marked with CD19-BV421; anti-human IgG1-PE; MFI (PE); table under the graph; fit of a flat control curve
[5] = target: CD79b endogenously expressed on the cell surface (malignant B cell lines, normal B cells in PBMC, CLL patients' B lymphocytes) (human) (UniProt P40259); test: flow cytometry on Nalm-6 cells; anti-human IgG1-PE; MFI (PE); table under the graph; fit of a flat control curve
[6] = target: CD79b endogenously expressed on the cell surface (malignant B cell lines, normal B cells in PBMC, CLL patients' B lymphocytes) (human) (UniProt P40259); test: flow cytometry on Ramos cells; anti-human IgG1-PE; MFI (PE); table under the graph; fit of a flat control curve
[7] = target: T1, human CD79b recombinant protein (human, UniProt P40259 29-159); test: ELISA on recombinant human CD79b ECD; A 450nm
T1 construct: also called human CD79b ECD antigen; recombinant human CD79b ECD
T1 sequence: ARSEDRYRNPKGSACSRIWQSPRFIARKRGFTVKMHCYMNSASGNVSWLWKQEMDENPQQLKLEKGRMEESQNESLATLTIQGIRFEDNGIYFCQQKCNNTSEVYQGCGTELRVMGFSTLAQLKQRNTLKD

[8] = target: T2, CD79b endogenously expressed on the cell surface (malignant B cell lines, normal B cells in PBMC, CLL … (human, UniProt P40259 29-229)); test: flow cytometry on BJAB cells; anti-human IgG1-PE; MFI (PE); table under the graph
T2 construct: whole, on cells; On cells CD79b stands in the B-cell receptor complex with CD79a and surface Ig; also called cell surface CD79b; endogenous CD79b
T2 sequence (looked up): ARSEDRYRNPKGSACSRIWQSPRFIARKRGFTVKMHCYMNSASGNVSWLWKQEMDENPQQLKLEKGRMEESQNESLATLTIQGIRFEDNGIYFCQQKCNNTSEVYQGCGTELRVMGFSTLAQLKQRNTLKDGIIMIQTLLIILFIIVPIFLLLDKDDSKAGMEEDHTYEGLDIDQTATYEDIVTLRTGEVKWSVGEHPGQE
Method: (§1) The binding affinities of anti-CD79b antibodies to malignant B cell lines were tested. […] The cells were then incubated with 100 μl anti-human IgG1-PE (Invitrogen, cat: 12-4998-82), 1:1000 dilution, for 30 min on ice, washed with 200 ul PBS for three times before flow cytometry analysis.

[9] = target: T3, cynomolgus CD79b recombinant protein (cynomolgus); test: ELISA, coated cynomolgus CD79b recombinant protein
T3 chain: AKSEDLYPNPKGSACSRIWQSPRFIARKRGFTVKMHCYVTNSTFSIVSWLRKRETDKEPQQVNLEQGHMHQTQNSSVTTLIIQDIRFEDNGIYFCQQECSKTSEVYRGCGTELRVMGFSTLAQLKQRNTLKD
Method: (§2) Binding affinities of anti-CD79b antibodies to human and cynomolgus CD79b recombinant proteins were tested by ELISA. 1 ug/ml (in PBS buffer) of human or cynomolgus CD79b recombinant proteins were coated on an ELISA plate overnight. ELISA plates were washed and blocked with blocking buffer (PBS+1% BSA) followed by incubation with serially diluted anti-CD79b primary antibodies. Anti-CD79b antibody binding was quantified using an anti-human IgG HRP secondary antibody (Biolegend Catalog #410902) and HRP substrate.

[10] = target: T2, CD79b endogenously expressed on the …; test: flow cytometry on PBMC of Donor 2890, B cells marked with CD19-BV421; anti-human IgG1-PE; MFI (PE); table under the graph
Method: (§3) The binding affinities of anti-CD79b antibodies to endogenous B cells were tested. […] The cells were then incubated with […] mixture of anti-human IgG1-PE (Invitrogen, Cat #: 12-4998-82), 1:1000 dilution; CD19-BV421 (Biolegend, Cat #:302230, 1:400 dilution) for 30 min on ice, and washed with 200 ul PBS for three times before flow cytometry analysis.

[11] = target: T2, CD79b endogenously expressed on the …; test: flow cytometry on PBMC of Donor 2235, B cells marked with CD19-BV421; anti-human IgG1-PE; MFI (PE); table under the graph
Method: as §3

[12] = target: T2, CD79b endogenously expressed on the …; test: flow cytometry on Nalm-6 cells; anti-human IgG1-PE; MFI (PE); table under the graph
Method: as §1

[13] = target: T1, human CD79b recombinant protein; test: ELISA, coated human CD79b recombinant protein
Method: as §2

[14] = target: T2, CD79b endogenously expressed on the …; test: flow cytometry on PBMC of Donor 889, B cells marked with CD19-BV421; anti-human IgG1-PE; MFI (PE); table under the graph
Method: as §3

[15] = target: T2, CD79b endogenously expressed on the …; test: flow cytometry on PBMC of Donor 356, B cells marked with CD19-BV421; anti-human IgG1-PE; MFI (PE); table under the graph (the graph's legend prints ch44D2)
Method: as §3

[16] = target: T2, CD79b endogenously expressed on the …; test: flow cytometry on PBMC of CLL Donor 0255 (B lymphocytes); PE goat anti-human IgG Fc; MFI PE
Method: To determine the binding affinities of the anti-CD79b antibodies to cell surface CD79b on Chronic Lymphocytic Leukemia (CLL) patient's B lymphocytes, a cell-based binding assay was conducted. […] CLL patient PBMCs were purchased from the company Bioscience. […] Specifically, 2.5×10⁴ PBMC cells in 50 μl FACS buffer (1×PBS+2% BSA+2 mM EDTA) were seeded in each well of a V bottom 96-well plate. […] The mixture was incubated on ice for 30 minutes, and then washed twice with FACS buffer. The cells were re-suspended in 100 μl FACS buffer containing PE conjugated goat anti-human IgG Fc (1:1000) and anti-human CD19 (BV421), and incubated for 30 minutes on ice in darkness. After washing twice with FACS buffer, the cells were re-suspended in 100 μl of FACS buffer and analyzed with a Cytek cytometer.

[17] = target: T2, CD79b endogenously expressed on the …; test: flow cytometry on SU-DHL-4 cells; anti-human IgG1-PE; MFI (PE); table under the graph
Method: as §1

[18] = target: T2, CD79b endogenously expressed on the …; test: flow cytometry on a cell line expressing endogenous CD79b (not named on the sheet or in the text); MFI (PE)
[19] = target: T2, CD79b endogenously expressed on the …; test: flow cytometry on Daudi cells; anti-human IgG1-PE; MFI (PE); table under the graph
Method: as §1

[20] = target: T2, CD79b endogenously expressed on the …; test: flow cytometry on Ramos cells; anti-human IgG1-PE; MFI (PE); table under the graph
Method: as §1

[21] = target: T1, human CD79b recombinant protein; test: BLI; antibody at 10 ug/ml captured on anti-human IgG Fc probes, hCD79b in solution; row for 9.14 nM hCD79b
[22] = target: T2, CD79b endogenously expressed on the …; test: flow cytometry on PBMC of Donor 356, B cells marked with CD19-BV421; anti-human IgG1-PE; MFI (PE); table under the graph
Method: as §3

[23] = target: T1, human CD79b recombinant protein; test: BLI; antibody at 10 ug/ml captured on anti-human IgG Fc probes, hCD79b in solution; same value printed in the rows for 18.3 and 9.14 nM hCD79b
Method: (§4) Binding affinities of anti-CD79b antibodies to human CD79b recombinant proteins were tested by BLI. 10 ug/ml of anti-CD79b antibodies were captured by anti-human IgG Fc probes (Gator Bio Catalog #160024). […] Absolute kD was determined by applying a 1:1 binding model (Global Rmax unlinked).

[24] = target: T1, human CD79b recombinant protein; test: BLI, antibody captured on anti-human IgG Fc probes, human CD79b in solution, 1:1 model
Method: as §4

Which Q3 (percent of cells Anti-CD79b-PE positive, Anti-IgM-APC negative) [1] does the source give for Isotype (antibody) here?
The Q3 (percent of cells Anti-CD79b-PE positive, Anti-IgM-APC negative) was 1.16.

Which EC50 [2] does the source give for IgG1 control (antibody) here?
The EC50 was 40 pM.

And the EC50 [3]?
Its EC50 is 170 pM.

What about the EC50 [4] of the same molecule?
The EC50 was 163 pM.

And the EC50 [5]?
The EC50 was 8170 pM.

What about the EC50 [6] of the same molecule?
The EC50 was 10 pM.

B1: ch44G2 (antibody, human IgG1, kappa, V domains shown)
VH: QSVRETGGGLVQPGGSLKLSCKASGFTINIDYWISWVRQAPGKGLEWIGIIDPGDGTTYFAIWVSGRFTISFDNTQNTVDLQMNSLTAADTATYFCVREFSASAYQYDLWGPGTLVTVSS
VL: DLVMTQTPSSVSAAVGGTVSINCRASEDIENYLAWYQQKPGQPPKLLIYRASTLSSGVSSRFSGSGSGTEFTLTISGVQPDDAATYYCQQGYRNSNVDNPFGGGTEMVVKR
notes: Rabbit/human chimeric IgG1 kappa; also called chimeric 44G2
Which “EC50 (read off the curve)” value [7] does the source give for B1 here?
The value was about 500 pM.

And the EC50 [8]?
Its EC50 is 670 pM.

And the IC50 [9]?
The IC50 was 3000 pM.

What about the EC50 [10] of the same molecule?
The EC50 was 675 pM.

And the EC50 [11]?
The EC50 was 727 pM.

And the EC50 [12]?
Its EC50 is 1590 pM.

What about the IC50 [13] of the same molecule?
The IC50 was 630 pM.

And the EC50 [14]?
The EC50 was 95.5 pM.

And the EC50 [15]?
Its EC50 is 357 pM.

And the “EC50 (read off the curve)” value [16]?
The value was about 800 pM.

What about the EC50 [17] of the same molecule?
The EC50 was 720 pM.

And the “EC50 (read off the curve)” value [18]?
Its value is about 200 pM.

And the EC50 [19]?
Its EC50 is 790 pM.

What about the EC50 [20] of the same molecule?
Its EC50 is 860 pM.

B2: polatuzumab (antibody, V domains shown)
VH: EVQLVESGGGLVQPGGSLRLSCAASGYTFSSYWIEWVRQAPGKGLEWIGEILPGGGDTNYNEIFKGRATFSADTSKNTAYLQMNSLRAEDTAVYYCTRRVPIRLDYWGQGTLVTVSS
VL: DIQLTQSPSSLSASVGDRVTITCKASQSVDYEGDSFLNWYQQKPGKAPKLLIYAASNLESGVPSRFSGSGSGTDFTLTISSLQPEDFATYYCQQSNEDPLTFGQGTKVEIKR
Which results are given for B2?
EC50 [8]: 1260 pM; Kd [21]: 417 pM; EC50 [10]: 1560 pM; EC50 [11]: 1980 pM; EC50 [12]: 7850 pM; IC50 [13]: 190 pM; EC50 [14]: 154 pM; EC50 (read off the curve) [16]: ~900 pM; EC50 [22]: 238 pM; EC50 [17]: 1440 pM; EC50 [19]: 2240 pM; EC50 [20]: 1780 pM

B3: ch23D8 (antibody, human IgG1, kappa, V domains shown)
VH: QSLEESGGGLVTPGGTLTLTCTVSGLSLSSNAINWVRQAPGKGLEWIGMIYSGGRIEYASWAKGRFTISKTSTTVDLKITSPTTEDTATYFCAKGMSPSAHSSDIWGPGTLVTVSA
VL: AYDMTQTPASVEVAVGGTVTIKCQASQSISDNLSWYQQKPGQPPKLLIYDASDLASGVPSRFSGSGSGTEFTLTISDLEPADAATYYCQQDWISSNVDNTFGGGTEVVVKR
notes: Rabbit/human chimeric IgG1 kappa; also called chimeric 23D8
B3 was tested. Which koff [23] did it give?
The koff was 7.85e-05 s⁻¹.

And the kon [23]?
Its kon is 245000 M⁻¹ s⁻¹.

What about the “EC50 (read off the curve)” value [7] of the same molecule?
The value was about 100 pM.

And the EC50 [8]?
Its EC50 is 1060 pM.

And the IC50 [9]?
The IC50 was 570 pM.

And the Kd [24]?
Its Kd is 320 pM.

What about the EC50 [10] of the same molecule?
Its EC50 is 1050 pM.

And the EC50 [11]?
The EC50 was 921 pM.

And the EC50 [12]?
The EC50 was 4580 pM.

And the IC50 [13]?
Its IC50 is 330 pM.

And the EC50 [14]?
The EC50 was 150 pM.

And the “EC50 (read off the curve)” value [16]?
Its value is about 900 pM.

And the EC50 [22]?
Its EC50 is 225 pM.

What about the EC50 [17] of the same molecule?
Its EC50 is 930 pM.

What about the “EC50 (read off the curve)” value [18] of the same molecule?
Its value is about 300 pM.

And the EC50 [19]?
Its EC50 is 1080 pM.

What about the EC50 [20] of the same molecule?
Its EC50 is 1400 pM.
